The target in this series is T1, GST-AhAREB1 (Arachis hypogaea, UniProt G4X5C6 1-445).
T1 sequence: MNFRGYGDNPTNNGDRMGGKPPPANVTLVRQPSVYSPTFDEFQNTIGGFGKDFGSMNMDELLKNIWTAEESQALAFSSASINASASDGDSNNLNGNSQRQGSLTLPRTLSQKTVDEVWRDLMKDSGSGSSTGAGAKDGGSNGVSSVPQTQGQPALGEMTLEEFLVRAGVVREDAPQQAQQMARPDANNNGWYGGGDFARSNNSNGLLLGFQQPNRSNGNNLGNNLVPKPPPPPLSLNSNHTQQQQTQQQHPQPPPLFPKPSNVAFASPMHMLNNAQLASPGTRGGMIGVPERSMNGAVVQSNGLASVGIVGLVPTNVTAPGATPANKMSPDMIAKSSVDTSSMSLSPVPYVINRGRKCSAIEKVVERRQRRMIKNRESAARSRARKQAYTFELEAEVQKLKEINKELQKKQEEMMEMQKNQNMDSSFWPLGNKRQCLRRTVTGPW
In words: EMSA; LightShift Chemiluminescent EMSA kit (Pierce); buffer, salt, pH and temperature not stated. To be noted: protein: recombinant; tags: N-terminal GST (pGEX-4T-1); chain copies: 2; label: biotin.

Here are results for one molecule from PMC5124963, “Negative feedback regulation of ABA biosynthesis in peanut (Arachis hypogaea): a transcription factor complex inhibits AhNCED1 expression during water stress”.

B1: WT probe, AhNCED1 promoter ABRE/NACRE (-1367) (dsDNA)
DNA 1: CTCATCAATTATCACGTGTGATTGCTCTCA
DNA 2: TGAGAGCAATCACACGTGATAATTGATGAG
In the case of B1, the binding result is recorded as “binds”.
